From the nanobody polyreactivity screen of Harvey et al. (2022)

Experiment: yeast display, Sf9 membrane polyspecificity reagent, FACS + sequencing; frameworks hold sequencing errors
Procedure, shortened: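 In a synthetic yeast display library (Saccharomyces cerevisiae BJ5465), nanobody expression was induced with galactose for 36–48 hours. FACS gates were set low and high (top ~1%) using anti-HA fluorescence for expression and streptavidin fluorescence for binding of the Sf9 membrane reagent. Each polyreactivity label is drawn from the gate of origin.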

## QVLLVESGGCLVQAGGILRLSCAASGIIFRSNVMGWYRQEPGKASELVAAISTGGGRTYYADSVKGRFTISRDNAKNTVYLQMNSLKPEDTAVYYCATRDIGKQWTRYYYWGQGTQVTVSS
  polyreactivity (PSR sort gate): high polyreactivity

## QVLLVESGGGLVHAGGSLRLSCAASGSISKINAMRRYRQAPGKERELVAAINTGDSTYYADSVKGRFTISRDNAKYTGYLQMNSLKPEDTAVYYCAAEGSPSGYDYWGQGTQVNVSS
  polyreactivity (PSR sort gate): low polyreactivity

## QVLLVESGGGLVQAGGPLRLSCAASGFIIRTNAMGWYREEPGKERELDAAISRRGRTDYADSVKGRFTISRDNAKNTVYLQMKSLTPEESAVYYCNAYYAIQDSVHRYYFWGQGTQGTVSS
  polyreactivity (PSR sort gate): high polyreactivity

## QVLLVESGGGLVQAGGSLRIICAASGLTFSDYAMRWYRQAPGKERELVAGISSGGSTYYADSVKGRFTISRDNAKNTVYLQMNSLKPEDTAVYYCAATRYNRWPIKFDYWGQGTQVTVSS
  polyreactivity (PSR sort gate): high polyreactivity

## QVLLVESGGGLVQAGGSLRISCAASVRIVKSYAMGWYRQAPGKESELVAAISRGGRTNYADSVKGRFTISRDNAKNTVYLQMNSLKPEDTAVYYCAARFITPYDHYGYWGQGTQVTVSA
  polyreactivity (PSR sort gate): high polyreactivity

## QVLLVESGGGLVQAGGSLRLSCAASGFIFRPNAMGWYRQAPGKERELVARITYRGGSTYYADSVKGRFTISRDNAKKTVYLKMNSLKPEDTAVYYCAARAVTYAGYTYNYWGQGTQVTVSS
  polyreactivity (PSR sort gate): high polyreactivity

## QVLLVESGGGLVQAGGSLRLSCAASGFTFQLYAMGWYRQAPGKEREIVSAIRRNGGSTYYADSVKGRFTISRDNAKNTVYLQMNSLKPDDTAVYYCAADWYSYLHGTKYGYWGQGTQVTVSS
  polyreactivity (PSR sort gate): high polyreactivity

## QVLLVESGGGLVQAGGSLRLSCAASGRIFYSNVMGWYIQAPGKERELVAAISGRTGGTYYADSVKGRFTISRDNAKNTVYLQMNSLKPEDTAVYYCAARVIYYYGSGPYDYWGQGTQVTVSS
  polyreactivity (PSR sort gate): low polyreactivity

## QVLLVESGGGLVQAGGSLRLSCAASGRTFSINAMGWDRQAPGKERELVAAITKRRSTYYADSVKGRFTISRDNAKNSVYLQMNSLKPEDTAVYYCNARYRGRVYDRFGYWGQGTQVTVSS
  polyreactivity (PSR sort gate): high polyreactivity

## QVLLVESGGGLVQAGGSLRLSCAASGSIFGQYTMGWYRQAPGKERELVAAINSSGDSTFYADSVKGRFTISRDNAKNTVYLQMNSLKPEDTAVYYCAADPYRYYFRAYGWHREGYYWGQGTQVTVSS
  polyreactivity (PSR sort gate): low polyreactivity

## QVLLVESGGGLVQAGGSLRLSCAASGSIFYGYPMGWYRQAPGKERELVADIRSSGGSTYYADSVKGRFTISRDNAMNTVYLQMNSLKPEDTAVYYCAADSQELHQNSDYWGQGTQVTVSS
  polyreactivity (PSR sort gate): low polyreactivity

## QVLLVESGGGLVQAGGSLRLSCAASGSNFYRNAMGWYRQAPGKERDFVAAISRSTGRTFYADSVKGRFTISRDNAKNTVYLQMKSLQPEDTAVYYCDAAAKAGTTPTRSYWRHDSWGQGTQVSVSS
  polyreactivity (PSR sort gate): high polyreactivity

## QVLLVESGGGLVQAGGSLRLSCAASGSTFLRYTMGWYRQAPGKERELVAAINYGGGSTYYADSVKGRFTISRDNAKNTVYLQMNSLKPEDTAVYYCAAGFFRSAHGGKFYYWGQGTQVTVSS
  polyreactivity (PSR sort gate): high polyreactivity

## QVLLVESGGGLVQAGGSLRLSCAASGSTFPLYAMGWYRQAPGTERELVAAITSGGGNTYYADSVMGRFTISRDKAQNTVYLQMNSLKPEDTAVYYCAAVGGYKTYYSYEYDYWGQGTQVTVSS
  polyreactivity (PSR sort gate): low polyreactivity

## QVLLVESGGGLVQAGGSLRLSCAASGSTFVVNTMRWYRLAPGKERELVAAISTGSSTYADSVKGRFTISRDNAKKTVYLQMNSLKPEDTAVYYCNTAFPGKYDYWGQGTQVTVSS
  polyreactivity (PSR sort gate): low polyreactivity

## QVLLVESGGGLVQAGGSLRLSCASSGRILGYYAKGWYRQAPGKERELVAGITYSAGRTYYADSVKGRFTISRDNSKNTVYLQINRQTPEDTAVYYCAKALVRSGSTRGTPGYSYWGQGTQVTVSS
  polyreactivity (PSR sort gate): high polyreactivity

## QVLLVESGGGLVQAGGSLRVSCAASGLIFSRYTMGGYRQAPGKERELVAAISKTGSSTYYAVSVKGRFTISRDNAKNTVYLQMKSLKPEDTAVYYCATTPTGRKKGDYWGQGTQVTVSS
  polyreactivity (PSR sort gate): high polyreactivity

## QVLLVESGGGLVQEGGSLRLSCSASGFTFDSNAMGWYRQAPGKERELVAAISTGGSTYYADSVKGRFTISRDNAKNTVYLQMNSLKPEDNAVYYCAREPPYPDTWYGYWGQGSQVTVSS
  polyreactivity (PSR sort gate): low polyreactivity

## QVLLVESGGGVVQAGGSLRLSCASSGFTYGSYAMGWYRQAPGKERELVAGITRSSGSTYYADSVKGRFTISRDNAKITDYLQMNSLKPEDTAVYYCRQFSVWGYDYWGQGTKVTVSS
  polyreactivity (PSR sort gate): high polyreactivity

## QVLLVESRGGLVQAGGSLRLSCAASGGTFSYYAMGWYRQAPAKERELVAAISASGGSTYYADSVKGRFTISRDNAMNTVYLQRNSLKPEDTAVYYCNARYPYYFYAGNYWGQGTQVTVSS
  polyreactivity (PSR sort gate): low polyreactivity

## QVLVGESGGGLVQAGGSLRLSCAASGSTFSNYAMGWYRQAPGTERELVAVSTRGASTYYADSVKGRFTISRDNAKNTVYLQMNTLKPEDTAVYYCAASYWRYRVVHSPYRYYYWGQGTQVNVSS
  polyreactivity (PSR sort gate): high polyreactivity

## QVMLVESGGGLVQAGGSLRLSCAASGSTFEYYAMGWYRQAPGKERELVATISIDGRTNYADSVKGRFTISRDNAKNTVYLQMNSLNPEDTAVYYCGKRVVVWYFGTGDYWGQGTQVTVSS
  polyreactivity (PSR sort gate): low polyreactivity

## QVNLVESGGGLVQAGGSLRLRCAASGSIYISYAMGWYRQAPGKERELVATIRSSGGRTHYSDSVKGRFTISRDNAKNTVYLQMNSLKPEDTPVYYCHYGVYQYPQDYDYWGEGTQVTVSS
  polyreactivity (PSR sort gate): low polyreactivity

## QVPLVESGGGLVHAVGSLRLSCAASGSIFYPYAMGWNRKAPWKERELVARITSGGSTHYADSVKGRFTISRDNDNHNVYLHMNSLKPEDTAVYYFNADYWFVEYDYWGQGTQVTVSS
  polyreactivity (PSR sort gate): low polyreactivity

## QVPLVESGGGLVQAGGILRLSCAASGRIFLPYAMGWYRQAPGQERELVAAITSSDGSTHYADSVKGRFTISRDNAQNTVYLQMNSLKPEDTAVYYCNAARATYYYYLDDYWGQGTQVTVSS
  polyreactivity (PSR sort gate): low polyreactivity

## QVPLVESGGGLVQAGGSLRLSCAASGFTFYAYTMGWYRQAPGKERELVAAINKSGSSKYYADSVKGRFTISRDNAKNTVYLQMNSLKPEDTAVYFCNAYYRKVLGYDKMDYWGQGTQVTVSS
  polyreactivity (PSR sort gate): high polyreactivity

## QVPLVESGGGLVQAGGSLRLSCAASGIIFGKYTMGWYRQAPGKERELVAAISKRGGSTYYADSVKGRFTISRDNAKNTVYLQMYSLKRVDTAVYYCAAERISSYDYWGQGTQVTVSS
  polyreactivity (PSR sort gate): high polyreactivity

## QVPLVESGGGLVQAGGSLRLSCAASGLIFRTYTMGWYRQAPGKERELVATITRRGGTTYYADSVKGRFTLSRDNAKNTVYLQMNSLKPEDTAVYYCAKSPYYTWKYDYWGQGTQVTVSS
  polyreactivity (PSR sort gate): high polyreactivity

## QVPLVESGGGLVQAGGSLRLSCAASGLTFDIYTMGWYRQAPGKERELVARISTSGSRTYYADSVKGRFTISRDYAKNTVYLQMNSLIPEDTAVYYCNKDGWIRRRRGSDYWGQGTQVTVSS
  polyreactivity (PSR sort gate): high polyreactivity

## QVPLVESGGGLVQAGGSLRLSCAASGRTFTPNGMGWYRQAPGKERELVAAITYGGGITDYADSVKGRFTISRDNAKNTVYLQMNSLKPEDTAVYYCAATTLSFEGGKYWSKYDYWGQGTQVTVSS
  polyreactivity (PSR sort gate): low polyreactivity

## QVPLVESGGGLVQAGGSLRLSCAASGSIFYPYAMGWYRQAPGKERELVASITWSGGSTYYADSVKGRITISRDNATNSVYRQMNSLKPEDTAVYYCAADEKLYITGYDYWGQGTQVTVSS
  polyreactivity (PSR sort gate): low polyreactivity

## QVPLVESVGGLVQAGGRLRLSCAASGSIFGHNTMGWYREAPGKERELVAAISVSGTRTYYADSVKGRFTISRDNAKNTVYLQMNSLKPEDTAVYYCAAEISRVRQGVAWSYKYEYWGQGTQVTVSS
  polyreactivity (PSR sort gate): high polyreactivity

## QVPLVESVGGLVQAGGSLRLSCAASGTIFFGYAMGSYRQAPGKERDLVASISSGDTTYYADSVKGRFTISRDNAKNTVYLQMNSLKPEDTAVYYCAAREGQLWEDGDYWGQGTQVTVSS
  polyreactivity (PSR sort gate): low polyreactivity

## QVPLVETGGGLVQAGGSLRLSCAASGRTFNVYAMGWYRQAPGKERELVASITWDDGTTYNADSVKGRFTNSRDNAKNTVYLQMNSLKPEVTAVYYCAADGIYRGAWSTVYESPGYDYWGQGTQVTVSS
  polyreactivity (PSR sort gate): low polyreactivity

## QVPQQESGGGLVQAGGSLRLSCAASGTIFQLTVMGRYRQAPGKERELVSSIDYGGNTNYADIVKGRFSISRVNAKNTVYLQMNRLKPEDTSVYYFAASSDSWTTHPYWGQATQVTVSS
  polyreactivity (PSR sort gate): low polyreactivity

## QVQFVESGGGLVQAGGSLRVSCAASGSTFQGYAMGWSRQAPGKERELVAAISRSGGRTYYADSVKGRFTISRDNAKNTVYLQMNSLKPEDTAVYYCAAEGHELTEGDSWGQGTQVTVSS
  polyreactivity (PSR sort gate): low polyreactivity

## QVQHEESGGGLVQAGGSLRLSCAASGRTYDPYAMGWYRQAPGKERELVAAISSGGSTNYADSVKGRFTISRDNAKNTVYLQMNSLKPEDTAVYYCGTDSGDGEGDYWGQGSQVTVSS
  polyreactivity (PSR sort gate): low polyreactivity

## QVQHEESGGGLVQAGGSLRLSCAASGSIFLHYAIGWYRQAPGKERVFVAAISFRSGSTYYADSVKGRFTISRDNAKNTVYLKLNSLKPEDTAVYYCASKSYNFIPGIREYDYWGQGTQVTVSS
  polyreactivity (PSR sort gate): low polyreactivity

## QVQHEESGGGLVQAGGSLRLSCAASGSIFLWNAMGSYRQAPGKERELVASIGDSTYYADSVKGRFTISRDNAKNTVYLQMNSLKPEDTAVYYCKAEVLNYLVFGYQLCYDYWGQGTQVTVSS
  polyreactivity (PSR sort gate): low polyreactivity

## QVQHGESGGGLLQAGGSLRLSCAASGFIFGVYEMGWYRQAPGKDTELVAAIMRSGGSTYYADSVKGRFTISRDIAKNTVYLQMNSLKPEDTAVYYCAAAYTGKYRKYDYWGQGTQVTVSS
  polyreactivity (PSR sort gate): high polyreactivity

## QVQHGESGGGLVQAGGRLRLICAASGSISVWYVMGWYRQAPGKERELVAAITRSGGSTFYADSVKGRFTISRDNAKNTVYLEMNSLKPEDTAVYYCAADFPSLYVWYGYGWYKYDYWGQGTQVTVSS
  polyreactivity (PSR sort gate): low polyreactivity

## QVQHLESGGGVVQAGGSIRLSCAASVIIFRAYAMGWYRQAPGKERELVAAITSRGGSTYYADSVKGRFTFSRDNAKNTVYLQMNSLKQEDTAVYYCNAAALADYDYWGQGTQVTLSS
  polyreactivity (PSR sort gate): low polyreactivity

## QVQHVDSGGGLVQAGGSLRLSCAASGRTLTVYAMGWYRQAPGKERELVAAITWRGGSTYYADSVKGRFTISRDNAKNTVYLPMNSLKPADTPVDYCAAEDYTYNGGGYEYWGQGTQVTVSS
  polyreactivity (PSR sort gate): low polyreactivity
